{"source": "the DeepSol protein solubility set"}
{"experiment": "soluble on expression in E. coli; label from the status in PepcDB or PDB records"}
{"sequence": "SSSTSHSSLKSPSHMEKYPQKEKTKEDLDSRSNLHLPETKFSELSKLKNDDMEKANHIESVIKSNLPNCANSDTDFMGLFKSSRYDPSISFSGMSLSDTMTLRGSVQNKLNPRPGKVVIYSEPDVSEKCIEVFSDIQDCSSWSLSPVILIKVVRGCWILYEQPNFEGHSIPLEEGELELSGLWGIEDILERHEEAESDKPVVIGSIRHVVQDYRVSHIDLFTEPEGLGILSSYFDDTEEMQGFGVMQKTCSMKVHWGTWLIYEEPGFQGVPFILEPGEYPDLSFWDTEAAYIGSMRPLKMGGRKVEFPTDPKVVVYEKPFFEGKCVELETGMCSFVMEGGETEEATGDDHLPFTSVGSMKVLRGIWVAYEKPGFTGHQYLLEEGEYRDWKAWGGYNGELQSLRPILGDFSNAHMIMYSEKNFGSKGSSIDVLGIVANLKETGYGVKTQSINVLSGVWVAYENPDFTGEQYILDKGFYTSFEDWGGKNYKISSVQPICLDSFTGPRRRNQIHLFSEPQFQGHSQSFEETTSQIDDSFSTKSCRVSGGSWVVYDGENFTGNQYVLEEGHYPCLSAMGCPPGATFKSLRFIDVEFSEPTIILFEREDFKGKKIELNAETVNLRSLGFNTQIRSVQVIGGIWVTYEYGSYRGRQFLLSPAEVPNWYEFSGCRQIGSLRPFVQKRIYFRLRNKATGLFMSTNGNLEDLKLLRIQVMEDVGADDQIWIYQEGCIKCRIAEDCCLTIVGSLVTSGSKLGLALDQNADSQFWSLKSDGRIYSKLKPNLVLDIKGGTQYDQNHIILNTVSKEKFTQVWEAMVLYT", "soluble on expression in E. coli": "soluble"}
{"sequence": "SSTIGSFEGFQAVSLKQEGDDQPSETDHLSMEEEDPMPRQISRQSSVTESTLYPNPYHQPYISRKYFATRPGAIETAMEDLKGHVAETSGETIQGFWLLTKIDHWNNEKERILLVTDKTLLICKYDFIMLSCVQLQRIPLSAVYRICLGKFTFPGMSLDKRQGEGLRIYWGSPEEQSLLSRWNPWSTEVPYATFTEHPMKYTSEKFLEICKLSGFMSKLVPAIQNAHKNSTGSGRGKKLMVLTEPILIETYTGLMSFIGNRNKLGYSLARGSIGF", "soluble on expression in E. coli": "soluble"}
{"sequence": "SSTKVPIYLKRGSRKGKKEKLRDLLSSDMISPPLGDFRHTIHIGSGGGDDMFGDISFLQGKFHLLPGTAVEEAEEDGSFDLPFQFTRTTTVCGRELPDGLSPLLKNAISLPVIGGPQALTLPTAQAPPKPPRLHLESPQPSPQPSPQGAGNVDVWRIPEAGSPHNGMSPEPEAEEPFLSHASSLLSLHVDLGPSILDDVLQIMDHDLGRVQIPT", "soluble on expression in E. coli": "soluble"}
{"sequence": "SSTTTGPEAAPKPSAKSIYEQRKRYSTVVMADVSQYHVNHLVTFCLGEEDGVHTVEDASRKLAVMDSQGRVWAQEMLLRVSPSQVTLLDPVSKEELESYPLDAIVRCDAVMPRGRSRSLLLLVCQEPERAQPDVHFFQGLLLGAELIREDIQGALQNYRSGRGERRAAALRATQEELRRGASPAAETPPLQRRPSVRLVINTVEPSAVRGRPQVESIPETEEARKPDQARTTSSADPTSPDLGPRGPELAGLQAERDVDILNHVFDDVESFVSRLQKSAEATRVLEHRERGRRTRRRAAGEGLLTLRAKPPTEAEYTDVLQKIKYAFSLLARLRGNIANPSSPELLHFLFGPLQMIVNTSGGPEFAKSVRRPHLTLEAVTLLRDNVTPGENELWTSLGDSWTCPGVELPPEEGSPYSPEFYNGWEPPATDPQGRPWEDPVEKQLQHEKRRRQQSAPQVAVNGKIQNWKLSPS", "soluble on expression in E. coli": "soluble"}
{"sequence": "SSYADFVWFLISEEDKRNPTSIEYWFRCMDVDGDGILSMYELEYFYEEQCERMEAMGIEPLPFHDLLCQMLDLVKPASDGRITLRDLKRCRMAHIFYDTFFNLEKYLDHEQRDPFAVQKDVENDGPEPSDWDRFAAEEYEALVTEESAQVQLQEGSFEDYESDEPVSPSELGNKGNKIVTSSLSEKCGKLQSVDEE", "soluble on expression in E. coli": "soluble"}
{"sequence": "SSYNILSQDLLEDNSHLYRHCRRPVLHWSFRFPNILKEIKHFDADVLCLQEVQEDHYGAEIRPSLESLGYHCEYKMRTGRKPDGCAICFKHSKFSLLSVNPVEFFRPDISLLDRDNVGLVLLLQPKIPYAACPAICVANTHLLYNPRRGDIKLTQLAMLLAEISSVAHQKDGSFCPIVMCGDFNSVPGSPLYSFIKEGKLNYEGLPIGKVSGQEQSSRGQRILSIPIWPPNLGISQNCVYEVQQVPKVEKTDSDLTQTQLKQTEVLVTAEKLSSNLQHHFSLSSVY", "soluble on expression in E. coli": "soluble"}
{"sequence": "STDISTVASPLFEGTEGCFLLYDASTNAEIAQFNKAKCATQMAPDSTFKIALSLMAFDAEIIDQKTIFKWDKTPKGMEIWNSNHTPKTWMQFSVVWVSQEITQKIGLNKIKNYLKDFDYGNQDFSGDKERNNGLTEAWLESSLKISPEEQIQFLRKIINHNLPVKNSAIENTIENMYLQDLDNSTKLYGKTGAGFTANRTLQNGWFEGFIISKSGHKYVFVSALTGNLGSNLTSSIKAKKNAITILNTLNL", "soluble on expression in E. coli": "soluble"}
{"sequence": "STTEIGWWKLTFLRKKKSTPKVLYEIPDTYAQTEGDAEPPRPDAGGPNSDFNTRLEKIVDKSTKGKHVKVSNSGRFKEKKKVRATLAENPNLFDDHEEGRSSK", "soluble on expression in E. coli": "soluble"}
{"sequence": "STYPPTPPNVTRLSDESVMLRWMVPRNDGLPIVIFKVQYRMVGKRKNWQTTNDNIPYGKPKWNSELGKSFTASVTDLKPQHTYRFRILAVYSNNDNKESNTSAKFYLQPGAALDPMPVPELLEIEEYSETAVVLHWSLASDADEHLITGYYAYYRPSSSAGEYFKATIEGAHARSFKIAPLETATMYEFKLQSFSAASASEFSALKQGRTQRPK", "soluble on expression in E. coli": "soluble"}
{"sequence": "SVEDELALFDKSINEFWNKFKSTDTSCQMAGLRDTYKDSIKAFAEKLSVKLKEEERMVEMFLEYQNQISRQNKLIQEKKDNLLKLIAEVKGKKQELEVLTANIQDLKEEYSRKKETISTANKANAERLKRLQKSADLYKDRLGLEIRKIYGEKLQFIFTNIDPKNPESPFMFSLHLNEARDYEVSDSAPHLEGLAEFQENVRKTNNFSAFLANVRKAFTATVYN", "soluble on expression in E. coli": "soluble"}
{"sequence": "SWMANQFFLLEEYTGSDYQYVGKLHSDQDRGDGSLKYILSGDGAGDLFIINENTGDIQATKRLDREEKPVYILRAQAVNRRTGRPVEPESEFIIKIHDINDNEPIFTKDVYTATVPEMADVGTFVVQVTATDADDPTYGNSAKVVYSILQGQPYFSVESETGIIKTALLNMDRENREQYQVVIQAKDMGGQMGGLSGTTTVNITLTD", "soluble on expression in E. coli": "soluble"}
{"sequence": "SYELTQPPSVSVAPGQTARISCSGDNIGGTFVSWYQQKPGQAPVLVIYDDNDRPSGIPERFSGSNSGNTATLTISGTQAEDEADYYCGTWDMVTNNVFGGGTKLTVLGQPKAAPSVTLFPPSSEELQANKATLVCLISDFYPGAVTVAWKADSSPVKAGVETTTPSKQSNNKYAASSYLSLTPEQWKSHRSYSCQVTHEGSTVEKTVAPTECS", "soluble on expression in E. coli": "soluble"}
{"sequence": "SYLYTLYSDVRTEVAKMERVAWLEVVGKFETEKLTPNSLYEVVFVVKLIDSAKGWDFRVNFKLVLPTGETKERRENVNLLERNKWVEIPAGEFMISPEHLSGKIEFSMLEVKSDQWKSGLIVKGVAIRPKN", "soluble on expression in E. coli": "soluble"}
{"sequence": "SYSKTNEAAIEKTRHIANAAVYGRPEYRYNGALNLHYRPKRTDSTLLLNGGMNLNGEVLIEGGNMIVSGRPVPHAYDHQAKREPVLENEWTDGSFKAARFTLRNHARLTAGRNTAHLDGDITAYDLSGIDLGFTQGKTPECYRSYHSGSTHCTPNAVLKAENYRALPATQVRGDITLNDRSELRLGKAHLYGSIRAGKDTAVRMEA", "soluble on expression in E. coli": "not soluble"}
{"sequence": "SYSSAFAQAASSSLATSSAISRAFASVSSASAASSLAYNIGLSAARSLGIASDTALAGALAQAVGGVGAGASASAYANAIARAAGQFLATQGVLNAVNASSLGSALANALSDSAANSAVSGNYLGVSQN", "soluble on expression in E. coli": "soluble"}
{"sequence": "TAKQRDDAIENAEAAKVESEQVAKKATEGELHLAEVLEQANLNSIELKSVSQALDEQSSQLDEQVNALNVNSESQASAAEQMSQQVHHMATGIEESSKFVEELREKSEDVHQQAEKSSELLEDSTQAIGQIITSHEEIMKVADLITSVAEANQLAGFKCGNRSGASRRSGQRFCCGCRASTRAICEE", "soluble on expression in E. coli": "not soluble"}
